Results taken from the supplement of paper PMC10567573.
± gives the standard deviation.

Test: protein stability index of a GFP-peptide fusion (GPS, HEK-293T) (PSI 1-6); higher = more stable
[1] = treatment: DMSO, c terminus: a fixed tail appended
[2] = treatment: MLN4924 1 uM, 8 h, c terminus: a fixed tail appended
[3] = treatment: DMSO, c terminus: native
[4] = treatment: MLN4924 1 uM, 8 h, c terminus: native
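Further: 24-mer peptide tiles fused after GFP, lentivirally expressed, FACS-sorted into six equal bins by GFP/DsRed ratio, decoded by Illumina sequencing, PSI is the read-weighted mean bin number.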

| Sequence | protein stability index [1] | protein stability index [2] | protein stability index [3] | protein stability index [4] |
| --- | --- | --- | --- | --- |
| RCGKHFGTILNYLRDGAVPLPESR [KCTD10] | 2.27 ± 0.3 | 2.38 ± 0.32 | – | – |
| RCLIWGRKPKVIECSYTSADGQRH [DHCR7] | 2.61 ± 0.33 | 2.77 ± 0.33 | – | – |
| RDAAIKKLATEAGVEVIVRISHTL [CRY1] | 2.83 ± 0.92 | 2.62 ± 0.68 | – | – |
| RDAKAAMAGRLMIRKLVAEKLNIP [AASDHPPT] | 2.62 ± 0.28 | 2.79 ± 0.36 | – | – |
| RDEVRFFKGNKYWAVQGQNVLHGY [MMP1] | 2.35 ± 0.22 | 2.51 ± 0.14 | – | – |
| RDGLAEDLAALKQRLEEETRKRED [PRPH] | 5.33 ± 0.33 | 5.25 ± 0.27 | – | – |
| RDLEKQKEEVRAALEQREQDAVDQ [TRIM29] | 5.59 ± 0.08 | 5.66 ± 0.22 | – | – |
| RDVPESPQHAADTPKSGEPRVPEE [YJU2B] | 5.44 ± 0.19 | 5.53 ± 0.24 | – | – |
| RDYKIQASRTWCFYNTEDIKDWED [PTGFR] | 3.28 ± 0.36 | 3.68 ± 0.49 | – | – |
| REEEEQVRAHAPRGNAPPRGKGL [KCNG1] | – | – | 3.15 ± 1.3 | 3.68 ± 0.65 |
| REERLRRENEELSARYLSQCQEAE [FBF1] | 5.26 ± 0.29 | 4.97 ± 0.54 | – | – |
| REIKVTLVFEHVDQDLRTYLDKAP [CDK4] | 2.65 ± 0.56 | 2.68 ± 0.72 | – | – |
| REIQPTAILSLDQIKAIRGSNEYT [SPRY1] | 3.99 ± 0.29 | 4.02 ± 0.14 | – | – |
| RERPLNVFCDMETDGGGWLVFQRR [TNXB] | 3 ± 0.98 | 2.79 ± 0.48 | – | – |
| RERQRRLEVEREAEKKREAKQRAK [LRRC59] | 5.22 ± 0.29 | 5.43 ± 0.06 | – | – |
| RFLRAYREGALRAALQRSLAAALA [TRADD] | 2.27 ± 0.062 | 2.32 ± 0.18 | – | – |
| RFPESHLPIQTPGAFLRTCLLSSN [TLE6] | 2.71 ± 0.14 | 2.6 ± 0.26 | – | – |
| RGCGGTDIELDAARGDAVCTACGS [BRF1] | 4.9 ± 0.24 | 4.75 ± 0.26 | – | – |
| RGLGSQASTVTEIVKQQDPLVYKA [ACSBG2] | 4.32 ± 0.041 | 4.31 ± 0.52 | – | – |
| RGLRGEPGPQGSAGQRGEPGPKGD [EMID1] | 5.19 ± 0.4 | 5.41 ± 0.6 | – | – |
| RGMATKLLARPGTGEHREFKLDKK [FBF1] | 4.47 ± 0.33 | 4.62 ± 0.13 | – | – |
| RGTHAVVGVATARAPLHSVGYTAL [SPSB4] | 2.68 ± 0.27 | 2.63 ± 0.41 | – | – |
| RHAQTISGHALRILIVDWDVHHGN [HDAC6] | 2.18 ± 0.18 | 2.34 ± 0.4 | – | – |

| Sequence | protein stability index [1] | protein stability index [2] | protein stability index [3] | protein stability index [4] |
| --- | --- | --- | --- | --- |
| RHCKKYWLISEEEKTQKNQCWKSL [FBXO3] | 2.5 ± 0.35 | 2.96 ± 0.4 | – | – |
| RIRAILSTYRKRTPVMEGYVEVKE [LOXL2] | 2.62 ± 0.35 | 2.67 ± 0.38 | – | – |
| RIRSQIGNTESELKKLAEENPDLQ [GDAP1] | 5.42 ± 0.18 | 5.39 ± 0.12 | – | – |
| RLENRYEALAKQVASEMRFVQDLV [DAPK3] | 2.5 ± 0.16 | 2.45 ± 0.25 | – | – |
| RLHLAFKRQVPTEQAQAYAERLGV [RAB40B] | 3.13 ± 0.2 | 3.1 ± 0.26 | – | – |
| RLNFQTPGMASHPPIPILELADHI [PTPRD] | 3.23 ± 0.2 | 3.08 ± 0.087 | – | – |
| RLTQYMDGSGMPKTMQSEETRVWH [CAMK2D] | 3.44 ± 0.47 | 3.51 ± 0.19 | – | – |
| RLTREVEATRRALIDRMVNLHQA [DDIT3] | – | – | 3.44 ± 0.073 | 3.83 ± 0.32 |
| RLVLCMELANGKPQTRSGPECGLA [ADAMTSL2] | – | 2.22 ± 0.53 | – | – |
| RLWHTACASDEGEVIVFGGCANNL [KLHDC2] | 2.75 ± 0.34 | 2.89 ± 0.44 | – | – |
| RNLGKVVHYAKVQLRFQHSQDVSD [PLEKHN1] | 2.49 ± 0.44 | 2.6 ± 0.33 | – | – |
| RPLGIRAGPNGTLFVADAYKGLFE [APMAP] | 2.66 ± 0.27 | 2.61 ± 0.44 | – | – |
| RPSLVIHLRIHTGEKPYKCTHCSK [ZNF449] | 2.51 ± 0.49 | 2.31 ± 0.54 | – | – |
| RQLLCLIDYYESKIRKIHTQRQYK [CEP70] | 2.44 ± 0.37 | 2.95 ± 0.25 | – | – |
| RQPRDELERVRVSCTIIFLASIFQ [TMEM175] | 2.11 ± 0.15 | 2.17 ± 0.28 | – | – |
| RRDAETWFLSKTEELNKEVASNSE [KRT16] | 5.09 ± 0.35 | 5.19 ± 0.12 | – | – |
| RRGSWRLPYTDGLSWELLDSHLGG [CTBP1-DT] | 2.09 ± 0.09 | 2.66 ± 0.26 | – | – |
| RRQTSMTDFYHSKRRLIFSKRKP [CDKN1A] | – | – | 3.33 ± 0.28 | 3.71 ± 0.53 |
| RRYVARLEMRRRCTWSIFQSIEYA [PPEF2] | 1.86 ± 0.94 | 2.26 ± 0.14 | – | – |
| RSEAVAQLWGQKKKNSNMTYEKLS [ELF3] | 3.52 ± 0.21 | 3.8 ± 0.18 | – | – |
| RSRGASQKKQKLEQKAAGSASAKR [FATE1] | 5.07 ± 0.27 | 5.06 ± 0.31 | – | – |
| RSTNLLAAETASLEEQLQGWGEVM [ARL6IP1] | 3.85 ± 0.32 | 4.15 ± 0.23 | – | – |
| RTKQVLHTFKTRFTQPLLPAFTVW [FSD1] | 2.53 ± 0.32 | 2.44 ± 0.46 | – | – |

| Sequence | protein stability index [1] | protein stability index [2] | protein stability index [3] | protein stability index [4] |
| --- | --- | --- | --- | --- |
| RTTVFQYPVGWPPVQELPPSLRAP [ZMAT5] | 2.8 ± 0.17 | 2.79 ± 0.29 | – | – |
| RVPLGRLELLEEVLALGLRTDVGI [RSAD1] | 2.1 ± 0.44 | 2.15 ± 0.31 | – | – |
| RYWRSLRVMKVEDREGPSSSKLVT [HDAC6] | 2.79 ± 0.22 | 3.07 ± 0.44 | – | – |
| SAAIHISETLEQKPHFESSTVKTE [EPB41L3] | 4.92 ± 0.66 | 5.06 ± 0.52 | – | – |
| SAESQGLDGAGLMGFVPHNGSLYG [ADAMTSL2] | – | 3.47 ± 1.6 | – | – |
| SAFGNVKLVVHDCPVWDIFDSDWY [RHOBTB3] | 2.17 ± 0.33 | 2.2 ± 0.12 | – | – |
| SAGGHGGLLNDTSAPHLENSGHTI [KCNA4] | 4.21 ± 0.46 | 4.48 ± 0.2 | – | – |
| SAGKRGPDRGSPEYRQRRERNNIA [CEBPD] | 4.61 ± 0.2 | 4.41 ± 0.039 | – | – |
| SAGNRTHKARTRPKARKQGVSPAD [ADAMTSL2] | 4.75 ± 0.94 | 5.07 ± 0.8 | – | – |
| SASPIKDQPVMAVKTGEDGSNLDD [FANCE] | 5.66 ± 0.27 | 5.56 ± 0.2 | – | – |
| SASSSTTCCESTQRSVSDVASGST [IRX6] | 5.12 ± 0.26 | 5.26 ± 0.11 | – | – |
| SATSKLIHPDEDISLEERRAQLPK [ZNF207] | 4.9 ± 0.28 | 5.08 ± 0.2 | – | – |
| SCPGSSYRTVVRPTYKVMYKIVTA [EMID1] | 2.37 ± 0.53 | 2.22 ± 0.26 | – | – |
| SDRPFKCNQCGKCFIQSSHLIRHQ [ZNF8] | 3.31 ± 0.17 | 3.76 ± 0.61 | – | – |
| SECGKAFPRKSELTEHQRIHTGIK [ZNF649] | 4.07 ± 0.19 | 4.2 ± 0.062 | – | – |
| SEEELTHIFGDLDSYIPLHEDLLT [NET1] | 3.88 ± 0.19 | 4.03 ± 0.33 | – | – |
| SEKSQREDEEEEEGENYQKGERGE [CHGB] | 5.48 ± 0.28 | 5.58 ± 0.28 | – | – |
| SELQAYIAQCQDSPTSGKFRRGSG [MCOLN1] | 4.21 ± 0.075 | 4.31 ± 0.15 | – | – |
| SFACQCPEGHVLRSDGKTCAKLDS [MATN2] | 4.41 ± 0.39 | 4.88 ± 0.27 | – | – |
| SFHSSGEKQKQPRWREGTKDSHDP [PBXIP1] | 5.08 ± 0.17 | 5.19 ± 0.24 | – | – |
| SFNILVEDRVKLFGIEIEVTDIND [PCDHGA10] | 2.17 ± 0.4 | 2.55 ± 0.59 | – | – |
| SFVVARYFPAGNVVNEGFFEENVL [GLIPR2] | 2.11 ± 0.55 | 2.33 ± 0.24 | – | – |
| SFWNSSHPRGWNDHVHILDTETFT [KLHDC2] | 2.54 ± 0.17 | 2.39 ± 0.3 | – | – |

| Sequence | protein stability index [1] | protein stability index [2] | protein stability index [3] | protein stability index [4] |
| --- | --- | --- | --- | --- |
| SGERWLERYEIDSLIGKGSFGQVV [DYRK1B] | 2.97 ± 0.2 | 3.1 ± 0.25 | – | – |
| SGGGRDSSSSILRWLPEKRANPCL [ELOA2] | 3.11 ± 0.26 | 3.47 ± 0.17 | – | – |
| SGQRLGGYRTSAVASGLQFDVETR [WDFY2] | 3.82 ± 0.23 | 3.74 ± 0.27 | – | – |
| SGRDRVGRQERGLPPSMERGYPPP [RBMX] | 4 ± 0.38 | 3.94 ± 0.19 | – | – |
| SGRNGEVSLDISPDLPFQIKPSEN [PCDHGC5] | 4.47 ± 0.25 | 4.56 ± 0.26 | – | – |
| SHKRKRSSGSFCYCHPDSETDEDE [GMCL1] | 5.21 ± 0.4 | 5.34 ± 0.2 | – | – |
| SHLQWQESRLKRSNPLAREIFRRH [ZSCAN9] | 3.18 ± 0.29 | 3.35 ± 0.27 | – | – |
| SHRPNQHNTVKLGAFQAQEKELVF [PRIM1] | 3.06 ± 0.62 | 3.25 ± 0.37 | – | – |
| SIALRNISLAKGPPGPKGDQGDEG [SCARA5] | 4.68 ± 0.09 | 4.86 ± 0.2 | – | – |
| SIQSLTLEWNSLGTWDDAFATFCG [LRRC45] | 2.25 ± 0.25 | 2.08 ± 0.53 | – | – |
| SKCKIIHTDIKPENILMCVDDAYV [SRPK2] | 2.39 ± 0.33 | 2.5 ± 0.17 | – | – |
| SKDWVFLNYTYKRFEGLTQRGSIP [STK38L] | 2.54 ± 0.78 | 2.48 ± 1 | – | – |
| SKMDQLAKELTAEKRLEGQEEEED [CHGA] | 5.54 ± 0.34 | 5.42 ± 0.36 | – | – |
| SKNEVGIFTTPNFDETSSATTIST [KMT2E] | 4.76 ± 0.22 | 4.79 ± 0.17 | – | – |
| SLADGGSASPIKDQPVMAVKTGED [FANCE] | 5.46 ± 0.23 | 5.6 ± 0.16 | – | – |
| SLGQDLRRLRQELLKTEALKRQAQ [DAPK3] | 3.09 ± 0.59 | 2.96 ± 0.14 | – | – |
| SLQNSLECAMETTEEQTRQERQGP [NECAB1] | 5.09 ± 0.17 | 5.22 ± 0.25 | – | – |
| SMGFSARYNFTPDPDFKDLGALKP [NETO1] | 3.02 ± 0.33 | 3.26 ± 0.17 | – | – |
| SNFDDFPESDILQPVPNTTEPDYK [STK38L] | 5.59 ± 0.25 | 5.24 ± 0.29 | – | – |
| SNNITLREDQLDTVLAVLEDSSRD [INTS4] | 5.25 ± 0.18 | 5.28 ± 0.16 | – | – |
